Experimental data taken from a protein production outcome set (Wang et al. 2014).

Experiment: label from the status in PepcDB records
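Also: failed if final PepcDB status was selected cloned or expressed and not failed if soluble or beyond.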

Row | Sequence | protein production
1 | MRIPHHLSRSPTGRWSFVQRVPVDLQTVMGCRLIKRTLQTKDLAQAHVRAVVLGAGYARLFAQLTDQRVDKLSKTDADLLIARLTSAENLQDLTLNRTRQPDGTVTEQWQIDSPKDLKLYRQLMELEAMAGAALQARAHPVAVPTMFGSTHAGPSRQSSAPAIETMTLGKARDAFLATLKGSTLPKTYTIKKTAIEALVSFLGPTMKVHAITRSDLARWYQDMREKGASTPTLTNKQSYIGGRGGFFEWAMASGHYPKGDNPASGHVSYSQREKRARKKLGFKAYDRAQIQALFAPEALAKLSESARWASFLGLYTGARASEVGQLLVKDVFEEDGIPCIRISDEGEHQKVKTEVSLRTVPLHPELLKMGFLEWVGGKRKVGETRLFPAAKATAVNGQGNWITKAFSRHLAEVGKNWEPAKRGFHSLRKTLIQELQGAGVVSELRAQIVGHELDDEHHSTYGRDFTVVEKLRGLGPHSPGISRLSFFQ | failed
2 | MRIRFSRCASPRGKSSTGVIVPVCSAIYSIRRFWRWNKMKISVVIPTFNRCHLLAEAINSALDQASSELEVEAVIVDDESDDGTAAWLETAFAGEHRVRVLVNGRGKRPAGARNTGILAARHPKVGVIFSRARYEQDETEVPYMDPNFECKLCYASIATEDKDAVVFDRSYFGHLLKYSCYFNLSAVVMTADAARQLMSESLHIAEDFKFWVRLSHEQIFACLKVPQIRYRSHSANIPFKADKDPAGNTPSMLHTYRLMLGYPGLARSNREQLRKHMAKEYFDWAYRCSRKGRLAEALRLRLALFDLLWKNVVACVKLPWIGLRYRADRVGSTEQ | failed
3 | MRIVGLTGGIASGKSTVSNLFKASGIPVVDADVVARDVLKKGSGGWKRVVAAFGEEILLPSGEVDRPKLGQIVFSSDSKRQLLNKLMAPYISSGIFWEILKQWASGAKVIVVDIPLLFEVKMDKWTKPIVVVWVSQETQLKRLMERDGLSEEDARNRVMAQMPLDSKRSKADVVIDNNGSLDDLHQQFEKVLIEIRRPLTWIEFWRSRQGAFSVLGSVILGLSVCKQLKIGS | failed
4 | MRIYRTLTTYIARTYLTALVGATLVVGALLMLFDVIEITRRSGSKAIGIDVVLEMALYHLPMSLQSALPFVFMGGAVMIFWKLARSSELVVIRAAGLSVWQFLAPVIAVVVVLGIANVTLLNPLAAHLYTKYERMDAGMDSGVANPLALSDGGLWLRENNPEGQVVMHAQGVRQVDNALRMTGVTIFRYGPDRRFESRIDAETAGLREGALVLTSVVTTYPGRVGERAETLEVPSNLTLPKIQDSFSPPETVSFWELPAFITFFEAAGFSAHAHRLHWHSLIASPLLLIAMVLMGAVFSLKPSQRSVNWLFRIVGAVAAGFGVFFFSKITYTLGLSQTLPVNLAAWSPALVTTMVALAALFHLEDG | failed
5 | MRKDETSNTSPDISVAQPASALRYHLRPPRRNDGAAIHQLVSECPPLDLNSLYAYLLLCEHHAHTCVVAESPGGRIDGFVSAYLLPTRPDVLFVWQVAVHSRARGHRLGRAMLGHILERQECRHVRHLETTVGPDNQASRRTFAGLAGERGAHVSEQPFFDRQAFGGADHDDEMLLRIGPFTHPPH | not failed
6 | MRKDILYMLLLLLITDLSIIADIPVLRQSLPFIFFTIIPGYLLLGILKFKVELIDGSVIAAALSIFLMMMTGLIINSFYPLIMRPLSLLPILSAINLLIIALMVIYHLRGEEPLNLKASGNLSTALSSLLFPVLTVIGSYLMNKYSVNTVLLLVLLFIPVYIILLEVFKKKIGPATYPVAIFSISLSLLIMNGLPSNYLIGRDIHWEFYLFRKALMAHHWDMHVGSYNAYNACLSVTVLPVIYKVLLNVPEVYIFKFYYGFIGALMPLPVYLISERILKRSDYGFYATLLFIFQFSFIYILGWCRQLVALLFFAAAVMVLTGDMRRSHKKLLFVVFMVGTVLSHYTTAYVFFFLVALIPILVRVMKRLKVPDDSRGFFAASLAVLFFVVVFAWYAQATGAPFKSAVSFFTKTLRSMSEFFSADMRNNSELAVVGIGISNFPNLLSTLVHDTVFALIGAGALAVIFKEEYRQGREYLAAVILCMGILVAFIALPFVSKGYGGPRLFTQLLVILAPLFITGIDALTGFIGRVRWRIPSIIVLLILLFSCTTYLNYHFAGIPYSYAYDDGGERRYETFIYDNEVTGALWLSNHYNETSVIHGDKMIYSRIIYGFSTYPRVDREFFNGTDTETGGYVYLTHFNLYQRLVFLDYPLAPPRVVNGALKLDNVESINNYKDLIVNMSTIYDNGGSRVLIVA | failed
7 | MRKDWGDGPGGLGTAMQDKILLIEDSVALSMLLRTRLSDETEAEVVHCASMAEADALMQANNFTLALTGLNLPDAPKGEILTLLSERKVPAIVFTATVDEEARKRYAEKKIIDYIVKDGHRTVDAVVKTVDRIMTNKRFSVLVVDDARTARSGLVEILERQNFKVSEAHSGNRALEILSQDPSIQLVITDYHMPDMDGYELTRRIRDSRSSEDLRVIGISSSTDRLLSASFLKAGASDFVYRPFVPEELQCRIDNNIETLKQLKRLRELAERDHLTGLPNRRSFFERTRALMDVINDNDESGAVAILDIDHFKKINDTLGHDAGDRALKKLAELLQGMCDEQRHIPARLGGEEFAVFLRGLDARAAYAFCEELREQVEKNGRQLSGSSLALTISLGVVEIEKGEPFDNQLNAADQLLYLAKANGRNRVYSDIMIQEGLQKIGLNG | failed
8 | MRKIQFPFCILDVIQRKGVRVLYIIIPIVVLLLIFLFAGYVKAPPNKAAIITGLSKNPRVLLGKSGFKVPFFERVDWLEVGQININVVTEDYIPTKDFINIKVDAIAQVAMEVSNNQVSAVAMRNFLNRKADDVRSMITESLQGNLREIIGTMDLKSICQDKAKFSQEVKQNAEQDMKELGIRILSFNVQNVNDKDGLIDDLGIDNRETIRKTARVAKANADRDVEVASAEAANKASEAKVAAELAIAQRNNDLEIRKAELKIGEDTKKAEADAAYEIQKQTSRKTVEIREQEADIARREKEIELQTKEAEVAEKKLDAEIRKKAEADKYAEMQNADAELYRRQKDAEAQQYEAEKEAAAIRAKGLAEAEAIRQKGLAEAEALDKKAEAMKKYGQAAILEMIVGVLPDIAKSVAEPLSAIDKVTVIGGNSDGVSDLAGNVPIIMGKVMESVKEATGIDMNEIIRAETFEGKTTKNINFTGLDQVGEEIAQGAAQSVSETLQETE | failed
9 | MRKKEENLNTASGLRIAMILLGIAVTPVLLSSSSLGNQLSSSSLISVVLLGGVILTLLSAITISVGEKARLPTYGIVKYSFGEKGAIAINILMAISLFGWIAVTANMFGHSVHDLLAQHGLEVPLALLVAAGCVIFVASTAFGFTVLGKIAQVAVPVIALVLCYILYVATHTEVAVPAAIVEMNTGVAVSTVVGTIIVLVATLPDFGSFVHNRKHALIAAGVTFLVAYPLLYWAGATPSAISGQGSLLGAMAVFGAVLPAALLLIFACVTGNAGNMFQGTLVVSTLLTRFPKWQITVALGILSAIVGSMDIMAWFIPFLLFLGIATPPVAGIYIADFFLYRRNGYQESVLAQESQIKVLTFAAWIIGAAVGFMTVKGLFTLTTIPSVDSILVACIAYAILSRASQHR | failed
10 | MRKSDREAFLSSVLGNEQPPAHLARTVIEEKLRNAIIDGSLPSGTALRQQELATLFGVSRMPVREALRQLEAQSLLRVETHKGAVVAPLITEDAVDAYALRILLESEALRLSIPLLDADDLAAAASYIEQLEVETDFGQIGRLNRMFHLSLYAKTHNKRLMRLVEEGLNEEERFLRFNLSSMGLGKLSQDDHWQLLRLAEQKAVEPCVEALQYHLNRGVQAVTQYLQSQKAGNVKPARTKKNTPA | not failed
11 | MRKSKLTFIATFLILLFLSMPYKAHAASQTPITRADAEQRALTMINLNWTYSKSKNGVLPSAYSGSITAPSQFRGIENVVATGIPYCWGGFDGLNSSSYGESWTNFTDAVNKGAFVGNVKSSSYGHITGTAGLDCSGFVQATFNIKDYKLSTSTIFNQYFTKIDIKDIKHMDILNLPGNHVVIFDKWGTRNGVNGAYTYEATPDTTYGGIQGTKQYFMSMNTVSQYIPGRYVNIKEVAYVQVINASSLNIRTGPSTSYPIIGTISQNQIAEVTGYSSDGTWYKIKINGIEGYASSTYLTYVNNLEHHHHHH | failed
12 | MRKTWPLLTLLLCTCASAQLRADIAHNTPPGQATMQVYDGEKVLFQATTPGLNAVTASKFSPDGRWLLNIADGSGYVQLWDTAKGERVKTFLSVYFRIFGADFTPDSERLLLDFSGSKERADPRRPAYFPSPSLWNLATLERISFVYNDKRESFYNGKVTFSQDGERMAFVRPNAYSSGPASVWNAKTGAYIATISRLPYPKGAAQTGGAGAMDARLSPDGQRVLVRYVDNRLAEYDASTGTLLKVRGKFSAADAGAELERFAREGR | failed
13 | MRKTYKYRLYTCERNKHLVESIELASVVWNHFVALTRRYYEIYGEYPGYYALKKHLTKLKQRDKGHWYDLNSQALQNVIERLDQAYQRFFEIDSAGRPGFKKREKYTSFTLTQTGWKLLGGNRVRIQNHNYKFVKSRPIKGEIKTVTIKRDACGYLWICFSVEKEPPTPELPRTGNAVGLDFGLKDFLVTSDGDRIQAPEPLQESLEEVQDLHKKLSRKERGSNNRKEAKRRLAKKYRQIDNQRKDFHFKLARRLFSRYDVVCIEELNVGAMKELWGRKVSDLGFASFVKILEHVAQKEGKEVRKIDRWFPSSQTCSDCSHRYEDLSLEERTWTCEECGSLHDRDLNAARNVLERALSSAEAGVRPSGAAARVARSS | failed
14 | MRKYEIMYIIRPGVEEEAQKALVERFAGVLTNNGAEIINTKEWGKRRLAYEINDLREGFYMILNVNANAEAINEFDRLAKINEDILRHIVVKEEEK | not failed
15 | MRLAYVKNHEIYGEKLLGLTLRERIEKTLQRAGFDVRFFDELSLEEAEDYLIILEPVLILERDLLLEGRKILVSDGFTVGYFFGGDFRTVFDGNLQSSIEKYLSLNNLESYEIWAIKLSNDNLKTAEKLLLSSLIKAKRTGLKPAYYDGWIAREINRKVSLRISRLLADTSVTPNQITVFSFFLSLVGSALFLLNSYLTTLLAGVIIQLHSIIDGCDGEIARLKFMESKYGAWLDGVLDRYSDFIIVFSITYVLSASNPVYWIIGFLAAFASLMIAYTGDKFVAAYMRTYSPEGFAIPITRDFRLLIIFACSVVNLPSLALVIIALLGNFEALRRIVALRSYTN | failed
16 | MRLILNLIWLFFGGIWLALGYVFFGIIACIFIVTIPAGIASFRMANYALWPFGRTVVRNPKAGGFSALSNGLWFIIAGLWLAIGHLTTAAAQAITIIGIPLAIANIRMIPVTCFPFGKEIYDSNRIPFGYEPMVKF | failed
17 | MRLILSQCLANLSVRFLMNRNSYNKIAHLWNVARNGFFGREREYLDAILSVAPIGSTILDLGCGTGRPMAEYIVSRGRCVLGVDQSEEMLRLARQKLPHEQWVLSSIESYEPVEGYHGALLWDSLFHIRRTEHELIVSKVVRGLPSGGRLMLTVGGSAHPEFTDFMYGEEFYYDSNTPQETETFLQRLSCRMVIGEYMNLPDGGRDKGRYAIVAEKILEHHHHHH | failed
18 | MRLIVVGIAEDITEKKQLETELQRLATTDVLTQSSNRRHFFECANREFEQARLQGSSLAFLLLDIDDFKVINDTYGHPEGDIVLQRIAESGRAALRRGDLFGRIGGEEFAAVFPGCTADMARQVAERLQREIQRQNFSHQGQTFTITVSQGLTGLLAEDESLDNLFARADSAMYEAKRQGKNRIITGLEHHHHHH | failed
19 | MRLKKQLLGSLLVVIVVLSIAVATTKQQKGFVTGQPTGALNLSDILDSEELGEYHLMSAAIITGNTVDFSGLGAGPDDPFEIASITKIFTGELLRLQIERGEITESTAVGDVLGERVADSLIRDITVEELANHTSGLPRLGNVGLRPFMATFFDKNPYKDLSADRVISISTTSKLNSRGEFHYSNLGFALLGQVLARNAGLTFDQLLDRDLLAPLNLNNTKLMTPESLAQDAPQGFSTPGKQVEAWEMDGFLPAAGLRSTARDMAVFCQYLFTKGPAPFTWQSLESAPEIVWHNGESFGYSSVLFFNTATTTAIFVAADVATSVFPIGHELLMANSTRQESK | failed
